How the values were obtained:
HLA-C*04:01 = assay: IEDB peptide-MHC binding, purified MHC/direct/fluorescence; filed as Kd, often an IC50 or EC50 that approximates it; ≥ and ≤ were set here for values at or beyond the usual limits of such assays
HLA-B*48:01 = assay: IEDB peptide-MHC binding, purified MHC/competitive/fluorescence; filed as Kd, often an IC50 or EC50 that approximates it; ≥ and ≤ were set here for values at or beyond the usual limits of such assays; conditions: source organism: Cryptosporidium parvum Iowa II
HLA-C*03:03 = assay: IEDB peptide-MHC binding, purified MHC/direct/fluorescence; filed as Kd, often an IC50 or EC50 that approximates it; ≥ and ≤ were set here for values at or beyond the usual limits of such assays
HLA-A*02:01 = assay: as above
HLA-B*15:42 = assay: IEDB peptide-MHC binding, purified MHC/competitive/fluorescence; filed as Kd, often an IC50 or EC50 that approximates it; ≥ and ≤ were set here for values at or beyond the usual limits of such assays
HLA-A*32:07 = assay: as above; conditions: source organism: Mammarenavirus juninense
HLA-B*45:06 = assay: as above
HLA-B*27:20 = assay: as above; conditions: source organism: Mammarenavirus juninense
HLA-A*32:15 = assay: as above
HLA-C*08:02 = assay: IEDB peptide-MHC binding, purified MHC/direct/fluorescence; filed as Kd, often an IC50 or EC50 that approximates it; ≥ and ≤ were set here for values at or beyond the usual limits of such assays
HLA-B*83:01 = assay: IEDB peptide-MHC binding, purified MHC/competitive/fluorescence; filed as Kd, often an IC50 or EC50 that approximates it; ≥ and ≤ were set here for values at or beyond the usual limits of such assays
HLA-C*14:02 [1] = assay: as above
HLA-B*15:17 = assay: IEDB peptide-MHC binding, purified MHC/direct/fluorescence; filed as Kd, often an IC50 or EC50 that approximates it; ≥ and ≤ were set here for values at or beyond the usual limits of such assays; conditions: source organism: Vibrio vulnificus YJ016
HLA-A*23:01 = assay: as above; conditions: source organism: Vibrio vulnificus YJ016
HLA-A*03:01 = assay: as above; conditions: source organism: Vibrio vulnificus YJ016
HLA-A*68:02 = assay: as above; conditions: source organism: Vibrio vulnificus YJ016
HLA-A*01:01 = assay: as above; conditions: source organism: Vibrio vulnificus YJ016
HLA-B*15:01 = assay: as above; conditions: source organism: Vibrio vulnificus YJ016
HLA-A*31:01 = assay: as above; conditions: source organism: Vibrio vulnificus YJ016
HLA-B*08:02 = assay: as above; conditions: source organism: Vibrio vulnificus YJ016
HLA-B*27:05 = assay: as above; conditions: source organism: Vibrio vulnificus YJ016
HLA-A*24:02 = assay: as above; conditions: source organism: Vibrio vulnificus YJ016
HLA-B*58:01 = assay: as above; conditions: source organism: Vibrio vulnificus YJ016
HLA-B*57:01 = assay: as above; conditions: source organism: Vibrio vulnificus YJ016
HLA-A*26:03 = assay: as above; conditions: source organism: Vibrio vulnificus YJ016
HLA-A*69:01 = assay: as above; conditions: source organism: Vibrio vulnificus YJ016
HLA-B*18:01 = assay: as above; conditions: source organism: Vibrio vulnificus YJ016
HLA-B*07:02 = assay: as above; conditions: source organism: Vibrio vulnificus YJ016
HLA-A*24:03 = assay: as above; conditions: source organism: Vibrio vulnificus YJ016
HLA-A*11:01 = assay: as above; conditions: source organism: Vibrio vulnificus YJ016
HLA-B*39:01 = assay: IEDB peptide-MHC binding, purified MHC/competitive/fluorescence; filed as Kd, often an IC50 or EC50 that approximates it; ≥ and ≤ were set here for values at or beyond the usual limits of such assays; conditions: source organism: Vibrio vulnificus YJ016
HLA-B*08:01 = assay: as above; conditions: source organism: Vibrio vulnificus YJ016
HLA-A*02:06 = assay: as above; conditions: source organism: Vibrio vulnificus YJ016
HLA-B*15:09 = assay: as above; conditions: source organism: Vibrio vulnificus YJ016
HLA-C*15:02 = assay: IEDB peptide-MHC binding, purified MHC/direct/fluorescence; filed as Kd, often an IC50 or EC50 that approximates it; ≥ and ≤ were set here for values at or beyond the usual limits of such assays
HLA-C*12:03 = assay: as above; conditions: source organism: Brucella abortus S19
HLA-C*06:02 = assay: as above
HLA-B*46:01 = assay: IEDB peptide-MHC binding, purified MHC/competitive/fluorescence; filed as Kd, often an IC50 or EC50 that approximates it; ≥ and ≤ were set here for values at or beyond the usual limits of such assays; conditions: source organism: Brucella abortus S19
HLA-B*15:02 = assay: as above; conditions: source organism: Brucella abortus S19
HLA-C*14:02 [2] = assay: IEDB peptide-MHC binding, purified MHC/direct/fluorescence; filed as Kd, often an IC50 or EC50 that approximates it; ≥ and ≤ were set here for values at or beyond the usual limits of such assays; conditions: source organism: Campylobacter jejuni
HLA-A*26:01 = assay: as above; conditions: source organism: Campylobacter jejuni subsp. jejuni 81116
[3] = source organism: Mammarenavirus juninense
[4] = source organism: human gammaherpesvirus 4
[5] = source organism: Pan troglodytes
[6] = source organism: Brucella abortus S19
[7] = source organism: Campylobacter jejuni

IQNDLITEF
Kd (HLA-C*04:01; source organism: Vaccinia virus Copenhagen): ≥ 20 µM

IQNEIMKPL
Kd (HLA-B*48:01): 0.502 µM

KLMDVVYSI
Kd (HLA-C*03:03; [3]): ≥ 20 µM | Kd (HLA-A*02:01; [3]): 0.0009 µM | Kd (HLA-B*15:42; [3]): ≥ 5 µM | Kd (HLA-A*32:07): 0.0021 µM | Kd (HLA-B*45:06; [3]): ≥ 5 µM | Kd (HLA-B*27:20): 0.0179 µM | Kd (HLA-A*32:15; [3]): 0.0556 µM

RSDEYVAYY
Kd (HLA-C*04:01; [4]): ≥ 20 µM | Kd (HLA-C*08:02; [4]): 0.481 µM

VMPPRTLLL
Kd (HLA-C*08:02; [5]): ≥ 20 µM | Kd (HLA-C*03:03; [5]): ≥ 20 µM | Kd (HLA-B*15:42; [5]): ≥ 5 µM | Kd (HLA-B*83:01; [5]): ≥ 5 µM | Kd (HLA-C*14:02 [1]; [5]): 0.0768 µM | Kd (HLA-B*45:06; [5]): ≥ 5 µM

WHQARFEEL
Kd (HLA-B*15:17): ≥ 20 µM | Kd (HLA-A*23:01): 1.7 µM | Kd (HLA-A*03:01): ≥ 20 µM | Kd (HLA-A*68:02): ≥ 20 µM | Kd (HLA-A*01:01): ≥ 20 µM | Kd (HLA-B*15:01): ≥ 20 µM | Kd (HLA-A*31:01): ≥ 20 µM | Kd (HLA-B*08:02): ≥ 20 µM | Kd (HLA-B*27:05): ≥ 20 µM | Kd (HLA-A*24:02): 8.8 µM | Kd (HLA-B*58:01): ≥ 20 µM | Kd (HLA-B*57:01): ≥ 20 µM | Kd (HLA-A*26:03): ≥ 20 µM | Kd (HLA-A*69:01): ≥ 20 µM | Kd (HLA-A*02:01; source organism: Vibrio vulnificus YJ016): ≥ 20 µM | Kd (HLA-B*18:01): ≥ 20 µM | Kd (HLA-B*07:02): ≥ 20 µM | Kd (HLA-A*24:03): 0.145 µM | Kd (HLA-A*11:01): ≥ 20 µM | Kd (HLA-B*39:01): 0.0179 µM | Kd (HLA-B*08:01): ≥ 20 µM | Kd (HLA-A*02:06): ≥ 20 µM | Kd (HLA-B*15:09): 0.0229 µM

WYDWQQVPF
Kd (HLA-C*04:01; source organism: West Nile virus): 0.007 µM

YMRERLSDF
Kd (HLA-C*15:02; [6]): ≥ 20 µM | Kd (HLA-C*12:03): 0.094 µM | Kd (HLA-C*06:02; [6]): 0.112 µM | Kd (HLA-B*15:42; [6]): ≥ 5 µM | Kd (HLA-B*83:01; [6]): ≥ 5 µM | Kd (HLA-C*14:02 [1]; [6]): 0.018 µM | Kd (HLA-B*45:06; [6]): ≥ 5 µM | Kd (HLA-B*46:01): 0.0306 µM | Kd (HLA-B*15:02): 0.235 µM

YTKKYLLSF
Kd (HLA-C*15:02; [7]): 5 µM | Kd (HLA-C*06:02; [7]): ≥ 20 µM | Kd (HLA-C*14:02 [2]): 2.05 µM | Kd (HLA-A*26:01): 0.002 µM | Kd (HLA-B*15:42; [7]): ≥ 5 µM | Kd (HLA-B*83:01; [7]): ≥ 5 µM | Kd (HLA-B*45:06; [7]): ≥ 5 µM | Kd (HLA-A*32:15; [7]): 0.235 µM
